B1: BBSome complex member BBS1 (Homo sapiens), Q8NFJ9 (parent)
chain: MAAASSSDSDACGAESNEANSKWLDAHYDPMANIHTFSACLALADLHGDGEYKLVVGDLGPGGQQPRLKVLKGPLVMTESPLPALPAAAATFLMEQHEPRTPALALASGPCVYVYKNLRPYFKFSLPQLPPNPLEQDLWNQAKEDRIDPLTLKEMLESIRETAEEPLSIQSLRFLQLELSEMEAFVNQHKSNSIKRQTVITTMTTLKKNLADEDAVSCLVLGTENKELLVLDPEAFTILAKMSLPSVPVFLEVSGQFDVEFRLAAACRNGNIYILRRDSKHPKYCIELSAQPVGLIRVHKVLVVGSTQDSLHGFTHKGKKLWTVQMPAAILTMNLLEQHSRGLQAVMAGLANGEVRIYRDKALLNVIHTPDAVTSLCFGRYGREDNTLIMTTRGGGLIIKILKRTAVFVEGGSEVGPPPAQAMKLNVPRKTRLYVDQTLREREAGTAMHRAFQTDLYLLRLRAARAYLQALESSLSPLSTTAREPLKLHAVVQGLGPTFKLTLHLQNTSTTRPVLGLLVCFLYNEALYSLPRAFFKVPLLVPGLNYPLETFVESLSNKGISDIIKVLVLREGQSAPLLSAHVNMPGSEGLAAA
partner: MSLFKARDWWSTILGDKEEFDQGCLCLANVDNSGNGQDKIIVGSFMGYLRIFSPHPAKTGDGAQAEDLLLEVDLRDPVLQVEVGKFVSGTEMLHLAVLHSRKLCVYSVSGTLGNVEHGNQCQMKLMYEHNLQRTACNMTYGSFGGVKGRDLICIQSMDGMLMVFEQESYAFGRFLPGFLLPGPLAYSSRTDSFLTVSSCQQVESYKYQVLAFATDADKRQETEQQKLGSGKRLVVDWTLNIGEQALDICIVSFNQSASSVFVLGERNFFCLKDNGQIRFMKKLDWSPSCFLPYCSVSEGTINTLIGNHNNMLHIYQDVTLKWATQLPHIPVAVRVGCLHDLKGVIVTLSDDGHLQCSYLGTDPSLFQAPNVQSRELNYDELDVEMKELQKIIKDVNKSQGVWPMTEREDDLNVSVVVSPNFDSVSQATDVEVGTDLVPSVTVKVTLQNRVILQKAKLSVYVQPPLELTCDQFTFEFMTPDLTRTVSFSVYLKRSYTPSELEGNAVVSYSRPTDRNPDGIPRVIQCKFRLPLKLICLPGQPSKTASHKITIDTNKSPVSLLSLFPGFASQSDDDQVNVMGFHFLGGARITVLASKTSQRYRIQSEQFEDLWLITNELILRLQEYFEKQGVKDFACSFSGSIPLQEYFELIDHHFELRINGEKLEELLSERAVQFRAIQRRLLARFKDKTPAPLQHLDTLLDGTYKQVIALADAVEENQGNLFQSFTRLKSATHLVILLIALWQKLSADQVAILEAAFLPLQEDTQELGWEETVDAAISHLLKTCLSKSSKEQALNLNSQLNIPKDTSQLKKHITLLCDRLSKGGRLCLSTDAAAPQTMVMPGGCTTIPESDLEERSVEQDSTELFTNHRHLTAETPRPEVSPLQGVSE

Variants of: B1
Conditions: with pthb1_human BBS9, Q3SYG4

Row | Variant | effect of a mutation on the interaction
1 | MAAASSSDSDACGAESNEANSKWLDAHYDPMANIHTFSACLALADLHGDGEYKLVVGDLGPGGQQPRLKVLKGPLVMTESPLPALPAAAATFLMEQHEPRTPALALASGPCVYVYKNLRPYFKFSLPQLPPNPLEQDLWNQAKEDRIDPLTLKEMLESIRETAEEPLSIQSLRFLQLELSEMEAFVNQHKSNSIKRQTVITTMTTLKKNLADEDAVSCLVLGTENKELLVLDPEAFTILAKMSLPSVPVFLEVSGQFDVEFRLAAACRNGNIYILRRDSKHPKYCIELSAQPVGLIRVHKVLVVGSTQDSLHGFTHKGKKLWTVQMPAAILTMNLLEQHSRGLQAVMAGLANGEVRIYRDKALLNVIHTPDAVTSLCFGRYGREDNTLIMTTRGGGLIIKILKRTAVFVEGGSEVGPPPAQAMKLNVPRKTRLYVDQTLREREAGTAMHRAFQTDLYLLRLRAARAYLQALESSLSPLSTTAREPLKLHAVVQGLGPTFKLTLHLQNTSTTRPVLGLLVCFKYNEALYSLPRAFFKVPLLVPGLNYPLETFVESLSNKGISDIIKVLVLREGQSAPLLSAHVNMPGSEGLAAA [L522K] | with no effect
2 | MAAASSSDSDACGAESNEANSKWLDAHYDPMANIHTFSACLALADLHGDGEYKLVVGDLGPGGQQPRLKVLKGPLVMTESPLPALPAAAATFLMEQHEPRTPALALASGPCVYVYKNLRPYFKFSLPQLPPNPLEQDLWNQAKEDRIDPLTLKEMLESIRETAEEPLSIQSLRFLQLELSEMEAFVNQHKSNSIKRQTVITTMTTLKKNLADEDAVSCLVLGTENKELLVLDPEAFTILAKMSLPSVPVFLEVSGQFDVEFRLAAACRNGNIYILRRDSKHPKYCIELSAQPVGLIRVHKVLVVGSTQDSLHGFTHKGKKLWTVQMPAAILTMNLLEQHSRGLQAVMAGLANGEVRIYRDKALLNVIHTPDAVTSLCFGRYGREDNTLIMTTRGGGLIIKILKRTAVFVEGGSEVGPPPAQAMKLNVPRKTRLYVDQTLREREAGTAMHRAFQTDLYLLRLRAARAYLQALESSLSPLSTTAREPLKLHAVVQGLGPTFKLTLHLQNTSTTRPVLGLLVCFEYNEALYSLPRAFFKVPLLVPGLNYPLETFVESLSNKGISDIIKVLVLREGQSAPLLSAHVNMPGSEGLAAA [L522E] | with no effect
3 | MAAASSSDSDACGAESNEANSKWLDAHYDPMANIHTFSACLALADLHGDGEYKLVVGDLGPGGQQPRLKVLKGPLVMTESPLPALPAAAATFLMEQHEPRTPALALASGPCVYVYKNLRPYFKFSLPQLPPNPLEQDLWNQAKEDRIDPLTLKEMLESIRETAEEPLSIQSLRFLQLELSEMEAFVNQHKSNSIKRQTVITTMTTLKKNLADEDAVSCLVLGTENKELLVLDPEAFTILAKMSLPSVPVFLEVSGQFDVEFRLAAACRNGNIYILRRDSKHPKYCIELSAQPVGLIRVHKVLVVGSTQDSLHGFTHKGKKLWTVQMPAAILTMNLLEQHSRGLQAVMAGLANGEVRIYRDKALLNVIHTPDAVTSLCFGRYGREDNTLIMTTRGGGLIIKILKRTAVFVEGGSEVGPPPAQAMKLNVPRKTRLYVDQTLREREAGTAMHRAFQTDLYLLRLRAARAYLQALESSLSPLSTTAREPLKLHAVVQGLGPTFKLTLHLQNTSTTRPVLGLLVCFAYNEALYSLPRAFFKVPLLVPGLNYPLETFVESLSNKGISDIIKVLVLREGQSAPLLSAHVNMPGSEGLAAA [L522A] | with no effect
4 | MAAASSSDSDACGAESNEANSKWLDAHYDPMANIHTFSACLALADLHGDGEYKLVVGDLGPGGQQPRLKVLKGPLVMTESPLPALPAAAATFLMEQHEPRTPALALASGPCVYVYKNLRPYFKFSLPQLPPNPLEQDLWNQAKEDRIDPLTLKEMLESIRETAEEPLSIQSLRFLQLELSEMEAFVNQHKSNSIKRQTVITTMTTLKKNLADEDAVSCLVLGTENKELLVLDPEAFTILAKMSLPSVPVFLEVSGQFDVEFRLAAACRNGNIYILRRDSKHPKYCIELSAQPVGLIRVHKVLVVGSTQDSLHGFTHKGKKLWTVQMPAAILTMNLLEQHSRGLQAVMAGLANGEVRIYRDKALLNVIHTPDAVTSLCFGRYGREDNTLIMTTRGGGLIIKILKRTAVFVEGGSEVGPPPAQAMKLNVPRKTRLYVDQTLREREAGTAMHRAFQTDLYLLRLRAARAYLQALESSLSPLSTTAREPLKLHAVVQGLGPTFKLTLHLQNTSTTRPVLGLLVCELYNEALYSLPRAFFKVPLLVPGLNYPLETFVESLSNKGISDIIKVLVLREGQSAPLLSAHVNMPGSEGLAAA [F521E] | disrupting interaction strength
5 | MAAASSSDSDACGAESNEANSKWLDAHYDPMANIHTFSACLALADLHGDGEYKLVVGDLGPGGQQPRLKVLKGPLVMTESPLPALPAAAATFLMEQHEPRTPALALASGPCVYVYKNLRPYFKFSLPQLPPNPLEQDLWNQAKEDRIDPLTLKEMLESIRETAEEPLSIQSLRFLQLELSEMEAFVNQHKSNSIKRQTVITTMTTLKKNLADEDAVSCLVLGTENKELLVLDPEAFTILAKMSLPSVPVFLEVSGQFDVEFRLAAACRNGNIYILRRDSKHPKYCIELSAQPVGLIRVHKVLVVGSTQDSLHGFTHKGKKLWTVQMPAAILTMNLLEQHSRGLQAVMAGLANGEVRIYRDKALLNVIHTPDAVTSLCFGRYGREDNTLIMTTRGGGLIIKILKRTAVFVEGGSEVGPPPAQAMKLNVPRKTRLYVDQTLREREAGTAMHRAFQTDLYLLRLRAARAYLQALESSLSPLSTTAREPLKLHAVVQGLGPTFKLTLHLQNTSTTRPVLGLLVCALYNEALYSLPRAFFKVPLLVPGLNYPLETFVESLSNKGISDIIKVLVLREGQSAPLLSAHVNMPGSEGLAAA [F521A] | with no effect

Reference: IntAct's records for PubMed 29039417
